Assay results reported in patent CN114773459A (UNIV SHENZHEN, dated 2022).

What was measured:
Experiment in all cases: BLI, biotinylated S1 variant on streptavidin sensor
[1] = molecular target: T1, SARS-COV2 突变株 S1 Alpha B.1.1.7 (SARS-CoV-2 Alpha B.1.1.7, UniProt P0DTC2 16-685)
T1 construct: domain: S1; also called Alpha B.1.1.7的S1; Alpha突变体

[2] = molecular target: T2, SARS-COV2 突变株 S1 Delta B.1.617.2 (SARS-CoV-2 Delta B.1.617.2, UniProt P0DTC2 16-685)
T2 construct: domain: S1; also called Delta B.1.617.2的S1; Delta突变体

[3] = molecular target: T3, SARS-COV2 突变株 S1 Omicron BA.2 (SARS-CoV-2 Omicron BA.2, UniProt P0DTC2 16-685)
T3 construct: domain: S1; also called Omicron BA.2的S1; Omicron突变体

B1: 纳米抗体Nb-H6 (VHH)
VHH: QLVESGGGLVQAGDSLRLSCAASERALSSFHMGWFRQAPGKQRAFVAAIKWRDGTTYYADSVKGRFTISRDNAKNTVYLQMNSLEPEDTAVYYCYYRGRWGTYWGQGTQVTVSS
For B1, the Kd [1] was 1080 nM, the Kd [2] was 1120 nM and the Kd [3] was 200 nM.
